This is an account of results in patent US20150368338A1 (Janssen / Centocor, published 2015).

Test [1] concerns the target T1, IFN-α4a (human, UniProt P05014 24-189).
T1 construct: also called IFN-αM1
The test can be described thus: ProteOn.

The target in test [2] is T2, IFN-αH2 (human, UniProt P01570 24-189).
T2 construct: also called IFN-α14
Briefly: ProteOn.

The target of test [3] is T3, IFN-αF (human, UniProt P01568 24-189).
T3 construct: also called IFN-α21
T3 chain: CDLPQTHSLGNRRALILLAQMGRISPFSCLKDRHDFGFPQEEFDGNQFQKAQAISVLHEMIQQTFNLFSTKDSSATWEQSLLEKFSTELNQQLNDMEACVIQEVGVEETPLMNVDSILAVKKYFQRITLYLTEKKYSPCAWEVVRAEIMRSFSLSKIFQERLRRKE
The test can be described thus: ProteOn.

For test [4], the target named is T4, Chimp IFN-ω (chimpanzee, UniProt P05000 24-195 (human entry)).
T4 construct: also called chimpanzee IFN-ω
Briefly: ProteOn.

Test [5] has as its target T5, Cyno IFN-ω (cynomolgus, UniProt P05000 24-195 (human entry)).
T5 construct: also called cynomolgus IFN-ω
T5 chain: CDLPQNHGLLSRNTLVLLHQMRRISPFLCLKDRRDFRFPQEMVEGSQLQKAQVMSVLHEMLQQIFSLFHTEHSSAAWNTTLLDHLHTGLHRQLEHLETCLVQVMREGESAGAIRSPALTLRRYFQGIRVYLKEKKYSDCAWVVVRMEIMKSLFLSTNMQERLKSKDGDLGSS
Briefly: ProteOn.

Test [6] has as its target T6, IFN-αK (human, UniProt P05013 24-189).
T6 construct: also called IFN-α6
Briefly: ProteOn.

For test [7], the target named is T7, IFN-αC (human, UniProt P01566 24-189).
T7 construct: also called IFN-α10
The test can be described thus: ProteOn.

The target in test [8] is T8, IFN-αWA (human, UniProt P05015 24-189).
T8 construct: also called IFN-α16
The test can be described thus: ProteOn.

In test [9] the target is T9, IFN-αJ1 (human, UniProt P01567 24-189).
T9 construct: also called IFN-α7
The test can be described thus: ProteOn.

Test [10] deals with IFN-β (human, UniProt P01574 22-187). Briefly: ProteOn.
For test [11], the target named is T10, IFN-αD (human, UniProt A0A087WWS6 25-190).
T10 construct: also called Val114 IFN-α1
T10 chain: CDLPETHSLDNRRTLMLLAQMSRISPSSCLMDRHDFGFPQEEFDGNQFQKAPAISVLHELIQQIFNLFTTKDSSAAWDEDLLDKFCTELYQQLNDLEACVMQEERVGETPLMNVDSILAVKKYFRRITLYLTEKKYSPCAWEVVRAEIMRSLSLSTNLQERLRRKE
The test can be described thus: ProteOn.

Test [12] concerns the target T11, IFN-αG (human, UniProt P01569 24-189).
T11 construct: also called IFN-α5
The test can be described thus: ProteOn.

Test [13] addresses T1, IFN-α4a. The test can be described thus: cell-based or functional assay.
Test [14] has as its target T2, IFN-αH2. The test can be described thus: cell-based or functional assay.
The target of test [15] is T3, IFN-αF. The test can be described thus: cell-based or functional assay.
Test [16] deals with T6, IFN-αK. Briefly: cell-based or functional assay.
For test [17], the target named is T7, IFN-αC. Briefly: cell-based or functional assay.
The target in test [18] is human IFN-ω (human, UniProt P05000 24-195). Briefly: cell-based or functional assay.
The target in test [19] is T8, IFN-αWA. Briefly: cell-based or functional assay.
Test [20] concerns the target T9, IFN-αJ1. The test can be described thus: cell-based or functional assay.
For test [21], the target named is T11, IFN-αG. The test can be described thus: cell-based or functional assay.
For test [22], the target named is T12, IFN-α1 (human, UniProt A0A087WWS6 25-190).
T12 construct: also called Ala114 IFN-αD
Briefly: ProteOn.

B1: IFWM371 (antibody, IgG1, V domains shown)
VH: EVQLVQSGAEVKKPGESLKISCKGSGYSFTSYWIGWVRQMPGKGLEWMGIIDPSDSDTRYSPSFQGQVTISADKSISTAYLQWSSLKASDTAMYYCARHPGLNWAPDFDYWGQGTLVTVSS
VL: not shown
notes: Fab cloned into IgG1/kappa background; also called IFWB351; parental mAb
As a reminder, the Kd is the constant that tells how readily two partners part at equilibrium. Higher therefore signals a looser complex. On to B1, for which the Kd was 5.39 nM in test [1]; 0.179 nM in [2]; 5.31 nM in test [3]; 1.08 nM in test [4]; 0.887 nM in test [5]; 0.245 nM in test [6]. Further, the Kd in [7] stood at 1.67 nM; in [8] it was 3.18 nM; in test [9], 10.8 nM; in test [12], 1.11 nM. Moreover, the binding result in [10], in test [11] and in test [22] was “no binding” in each case. The “IC50 (nM), ISRE reporter gene assay” value in [13] worked out at 32.8 nM; in test [14], 9.6 nM; in test [15] it was 16 nM; in test [16], 7.3 nM; in [17] it was 53.9 nM; in [18] it was 43.9 nM. Moreover, the “IC50 (nM), ISRE reporter gene assay” value amounted to 74.2 nM in test [19], 35.7 nM in [20] and 12.9 nM in [21].
